Earlier results on eight molecules are cited in patent publication US20250052762A1, “PEPTIDASE CLEAVABLE SUBSTRATES AND METHODS OF IDENTIFICATION AND USE THEREOF” (Alaunus Biosciences, Inc., priority 2020, published 2025).

One data set addresses MMP14 (Homo sapiens, UniProt P50281). Particulars: for Michaelis constant (KM): magnitude in words.
For a further data set, the target named is granzyme B (Homo sapiens, UniProt P10144). Particulars: for measured catalytic efficiency: candidate natural substrates, fluorescence assay (Boivin et al., 2012).
Chain of granzyme B (P10144 21-247): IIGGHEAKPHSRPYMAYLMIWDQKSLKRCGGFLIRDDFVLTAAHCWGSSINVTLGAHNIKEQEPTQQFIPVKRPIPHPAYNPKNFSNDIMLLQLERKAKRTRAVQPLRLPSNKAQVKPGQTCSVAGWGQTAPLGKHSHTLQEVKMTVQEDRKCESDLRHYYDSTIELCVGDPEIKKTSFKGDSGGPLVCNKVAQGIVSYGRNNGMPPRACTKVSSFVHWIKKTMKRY
Another data set has as its target T1, neutrophil elastase (Homo sapiens, UniProt P08246).
T1 sequence (P08246 30-267): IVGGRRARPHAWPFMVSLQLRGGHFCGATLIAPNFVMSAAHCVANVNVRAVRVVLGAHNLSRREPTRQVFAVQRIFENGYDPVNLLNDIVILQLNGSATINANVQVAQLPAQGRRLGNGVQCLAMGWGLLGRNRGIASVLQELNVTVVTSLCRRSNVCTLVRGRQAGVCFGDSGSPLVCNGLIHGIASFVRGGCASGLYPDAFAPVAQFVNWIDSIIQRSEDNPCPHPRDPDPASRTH

Setting [1] is: magnitude in words, top-most active substrates in BRENDA database.
Where [2] appears, read: top-most active substrates in BRENDA database.

“Also recorded” adds a separate entry of the source. Square brackets hold non-standard residues; d marks the D form. Ends that are not written are not given here. * marks the point of attachment. MeOSuc = COC(=O)CCC(=O)*; 2Abz = Nc1ccccc1C(=O)O; dnp = not defined here; SBn = c1ccc(CS*)cc1

With “collagen I alpha-2: collagen I alpha-2 chain, natural substrate of MMP14”, the “Michaelis constant (KM)” value with MMP14 (BRENDA database) is recorded as “piocomolar; also recorded: picomolar”.

On to “2-aminobenzoyl-IEPDSSMESK-dnp ([2Abz]IEPDSSMESK-dnp; reading uncertain; also: printed as 2-aminobenzoyl-IEPDSSMESK-dnp) [fluorescent tool substrate for granzyme B]”, for which the estimated catalytic efficiency with granzyme B (estimated from KM and kcat, fluorescence assay (Sun et al., 2001)) is 758 mM⁻¹ s⁻¹. For the same molecule, the “Michaelis constant (KM)” value with granzyme B (setting [1]) is listed as “micromolar”. Besides, the “turnover number (kcat)” value with granzyme B (setting [2]) was 1 to 5 s⁻¹.

As for “methoxysuccinyl-Ala-Ala-Pro-Val-thiobenzyl ester (MeOSuc-AAPV-SBn; SMILES COC(=O)CCC(=O)N[C@@H](C)C(=O)N[C@@H](C)C(=O)N1CCC[C@H]1C(=O)N[C@H](C(=O)SCc1ccccc1)C(C)C) [fluorescent tool substrate for neutrophil elastase]”, the estimated catalytic efficiency with neutrophil elastase (estimated from KM and kcat, fluorescence assay (Stein et al., 1987)) was 9565 mM⁻¹ s⁻¹. Further, in the data set with neutrophil elastase (setting [1]), the “Michaelis constant (KM)” value is on record as “micromolar”. Further, the “turnover number (kcat)” value with neutrophil elastase (setting [2]) was “up to 22 s^−1”.

As to “collagen I alpha-1: collagen I alpha-1 chain, natural substrate of MMP14”, in the data set with MMP14 (BRENDA database), the “Michaelis constant (KM)” value is recorded as “piocomolar; also recorded: picomolar”.

For “methoxycoumarin-4-acetyl-Lys-Pro-Leu-Gly-Leu-Lys (2,4-dinitrophenyl)-Ala-Arg-NH2 ({methoxycoumarin‑4‑acetyl}-KPLGLK(2,4‑dinitrophenyl)AR-NH2; not fully specified; printed as methoxycoumarin-4-acetyl-Lys-Pro-Leu-Gly-Leu-Lys (2,4-dinitrophenyl)-Ala-Arg-NH₂)”, the catalytic efficiency with MMP14 (measured by fluorescence assay, BRENDA database) was 550 to 2429 mM⁻¹ s⁻¹. Further, the turnover number with MMP14 (reported in BRENDA database) is 0.33 to 6.8 s⁻¹.

B1: beta-glycan: candidate natural substrate of granzyme B (protein, UniProt Q03167 21-851, looked up)
Transforming growth factor …: GPEPGALCELSPVSASHPVQALMESFTVLSGCASRGTTGLPQEVHVLNLRTAGQGPGQLQREVTLHLNPISSVHIHHKSVVFLLNSPHPLVWHLKTERLATGVSRLFLVSEGSVVQFSSANFSLTAETEERNFPHGNEHLLNWARKEYGAVTSFTELKIARNIYIKVGEDQVFPPKCNIGKNFLSLNYLAEYLQPKAAEGCVMSSQPQNEEVHIIELITPNSNPYSAFQVDITIDIRPSQEDLEVVKNLILILKCKKSVNWVIKSFDVKGSLKIIAPNSIGFGKESERSMTMTKSIRDDIPSTQGNLVKWALDNGYSPITSYTMAPVANRFHLRLENNAEEMGDEEVHTIPPELRILLDPGALPALQNPPIRGGEGQNGGLPFPFPDISRRVWNEEGEDGLPRPKDPVIPSIQLFPGLREPEEVQGSVDIALSVKCDNEKMIVAVEKDSFQASGYSGMDVTLLDPTCKAKMNGTHFVLESPLNGCGTRPRWSALDGVVYYNSIVIQVPALGDSSGWPDGYEDLESGDNGFPGDMDEGDASLFTRPEIVVFNCSLQQVRNPSSFQEQPHGNITFNMELYNTDLFLVPSQGVFSVPENGHVYVEVSVTKAEQELGFAIQTCFISPYSNPDRMSHYTIIENICPKDESVKFYSPKRVHFPIPQADMDKKRFSFVFKPVFNTSLLFLQCELTLCTKMEKHPQKLPKCVPPDEACTSLDASIIWAMMQNKKTFTKPLAVIHHEAESKEKGPSMKEPNPISPPIFHGLDTLTVMGIAFAAFVIGALLTGALWYIYSHTGETAGRQQVPTSPPASENSSAAHSIGSTQSTPCSSSSTA
In the case of B1, in the data set with granzyme B, the measured catalytic efficiency is 5.9 mM⁻¹ s⁻¹.

B2: decorin: candidate natural substrate of granzyme B (protein, UniProt P07585 31-359, looked up)
Decorin: DEASGIGPEVPDDRDFEPSLGPVCPFRCQCHLRVVQCSDLGLDKVPKDLPPDTTLLDLQNNKITEIKDGDFKNLKNLHALILVNNKISKVSPGAFTPLVKLERLYLSKNQLKELPEKMPKTLQELRAHENEITKVRKVTFNGLNQMIVIELGTNPLKSSGIENGAFQGMKKLSYIRIADTNITSIPQGLPPSLTELHLDGNKISRVDAASLKGLNNLAKLGLSFNSISAVDNGSLANTPHLRELHLDNNKLTRVPGGLAEHKYIQVVYLHNNNISVVGSSDFCPPGHNTKKASYSGVSLFSNPVQYWEIQPSTFRCVYVRSAIQLGNYK
Take B2: in the data set with granzyme B, the measured catalytic efficiency is 1 mM⁻¹ s⁻¹.

B3: biglycan: candidate natural substrate of granzyme B (protein, UniProt P21810 38-368, looked up)
Biglycan: DEEASGADTSGVLDPDSVTPTYSAMCPFGCHCHLRVVQCSDLGLKSVPKEISPDTTLLDLQNNDISELRKDDFKGLQHLYALVLVNNKISKIHEKAFSPLRKLQKLYISKNHLVEIPPNLPSSLVELRIHDNRIRKVPKGVFSGLRNMNCIEMGGNPLENSGFEPGAFDGLKLNYLRISEAKLTGIPKDLPETLNELHLDHNKIQAIELEDLLRYSKLYRLGLGHNQIRMIENGSLSFLPTLRELHLDNNKLARVPSGLPDLKLLQVVYLHSNNITKVGVNDFCPMGFGVKRAYYNGISLFNNPVPYWEVQPATFRCVTDRLAIQFGNYKK
Consider B3, for which the measured catalytic efficiency with granzyme B was 1.7 mM⁻¹ s⁻¹.
